What was measured:
[1] = target: human PD-L1 on the cell surface (PD-L1 transfected HEK293, ES2, CHO PD-L1, engineered CHO cells) (human) (UniProt Q9NZQ7); assay: flow cytometry on engineered CHO cells; four-parameter sigmoidal fit, ECf
[2] = target: human PD-L1 on the cell surface (PD-L1 transfected HEK293, ES2, CHO PD-L1, engineered CHO cells) (human) (UniProt Q9NZQ7); assay: flow cytometry on engineered CHO cells; four-parameter sigmoidal fit, 50% occupancy
[3] = target: human OX40 and human PD-L1 expressed together on engineered CHO cells (human) (UniProt P43489); assay: flow cytometry on engineered CHO cells, AF647 anti-human IgG; apparent KD, one site specific binding fit
[4] = target: human PD-L1 on the cell surface (PD-L1 transfected HEK293, ES2, CHO PD-L1, engineered CHO cells) (human) (UniProt Q9NZQ7); assay: as above

Chain of human PD-L1 on the cell surface (PD-L1 transfected HEK293, ES2, CHO PD-L1, engineered CHO cells) (human) (Q9NZQ7 19-290, change not shown): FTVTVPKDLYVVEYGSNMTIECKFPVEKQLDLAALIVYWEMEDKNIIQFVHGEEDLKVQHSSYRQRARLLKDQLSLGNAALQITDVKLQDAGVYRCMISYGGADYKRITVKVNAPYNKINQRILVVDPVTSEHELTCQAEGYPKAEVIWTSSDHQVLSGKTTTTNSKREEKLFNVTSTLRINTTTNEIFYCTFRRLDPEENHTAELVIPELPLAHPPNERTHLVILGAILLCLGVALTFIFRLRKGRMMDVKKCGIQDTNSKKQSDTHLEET

MEDI5615 (PD-L1/OX40L BFP2 bispecific molecule, IgG4P)
concentration for 20% occupancy (EC20) [1]: 22 pM | concentration for 90% occupancy (EC90) [1]: 790 pM | EC50 [2]: 0.088 nM | Kd [3]: 0.27 nM | Kd [4]: 0.088 nM

— patent publication US20190241659A1
